Source: patent US20140179594A1, “STREPTOCOCCUS BACTERIOPHAGE LYSINS FOR TREATMENT OF GRAM POSITIVE BACTERIA IN COMPANION ANIMALS AND LIVESTOCK” (priority 2011, published 2014)

Legend:
[1] = system: cultures from the oral cavities of rats; assay: Oral cavity microbiota study, clearing zones on lawns; assay type: cell-based; settings: 6 cultures, 10 μL drops on BHI agar; the cleared culture confirmed as S. aureus
S. suis strain 7997 [2] = assay: PlySs2 storage stability, killing effectiveness; assay type: physicochemical, Streptococcus suis
Description: FIG. 9. The stability of purified PlySS2 was determined by evaluating killing effectiveness against strain 7997 after storage at 37° C. for up to 48 hours in buffer.
FIG. 10. Killing effectiveness, assessed by OD600 growth of strain 7997 upon treatment with PlySs2 lysin after lysin storage at −80° C. for up to 7 months in buffer.
The stability of purified PlySs2 lysin was determined upon maintenance at 37° C. for up to 48 hours in buffer. The PlySs2 lysin is >90% stable up to 24 hours and maintains at least 50% activity after 48 hours.
Stability of the PlySS2 lysin was evaluated on freezer storage at −80° C. The PlySs2 lysin retains essentially 100% activity on storage in buffer for up to at least 7 months at −80° C. (FIG. 10).

[3] = system: methicillin resistant Staphylococcus aureus strains (MRSA); assay: PlySs2 in vitro growth reduction and killing; assay type: cell-based
Description: (§1) Readings (OD600) were taken for each well in a spectrophotometer every minute over an hour. The OD density indicates the amount of bacterial cell growth in the microtiter well.
(§2) This activity test was first determined for the pathogenic S. suis strain 7997 with various concentrations of PlySs2 (FIG. 15A). Specific activity of purified PlySs2 lysin was also assessed in vitro against S. suis strain S735 (FIG. 15B). […] Additional results are tabulated below in TABLE 1.

S. aureus MW2 and 8325 = assay: Assessment of resistance, incrementally increasing concentrations; assay type: cell-based; settings: concentration doubled daily up to 4× MIC over an 8-day period
[4] = system: purified S. suis peptidoglycan; assay: PlySs2 bond specificity, mass spectroscopy of digest; assay type: biochemical, Streptococcus suis; settings: overnight at 37° C.
Description: Investigations to determine the bond catalyzed by PlySs2 lysin have been undertaken. PlySs2 was incubated with purified S. suis peptidoglycan stripped of lipotechoic acid and carbohydrates overnight at 37° C. and the product submitted for mass spectroscopy.

[5] = system: vancomycin resistant Staphylococcus aureus (VRSA); assay: PlySs2 in vitro test, standard MIC analysis; assay type: cell-based; settings: comparable in vitro tests (FIG. 18)
Description: (§3) FIG. 18. PlySS2 was tested by standard MIC analysis for its ability to kill strains of staphylococci. Included in the testing were resistant staphylococci such as Vancomycin resistant (VRSA), Vancomycin intermediate (VISA) and methicillin resistant (MRSA) staphylococci. The three VRSA strains tested represent half of all known isolates.

[6] = system: vancomycin intermediate sensitivity Staphylococcus aureus (VISA); assay: PlySs2 in vitro test, standard MIC analysis; assay type: cell-based; settings: comparable in vitro tests (FIG. 18)
Description: as §3

S. suis strain 7997 [7] = assay: PlySs2 lytic activity at various concentrations, OD600; assay type: cell-based, Streptococcus suis
Description: FIGS. 15A and 15B (A) PlySs2 has acute lytic activity against S. suis strain 7997 at, or above 8 ug/mL. (B) Activity of PlySs2 assessed in vitro against S. suis strain 5735.
as §1, §2

S. suis strain 7997 [8] = assay: PlySs2 biochemical characterization, OD600 turbidity

B1: PlySs2: S. suis prophage lysin from strain 89/1591, amino acid sequence SEQ ID NO:3 (protein, listed as Streptococcus suis)
chain: MTTVNEALNNVRAQVGSGVSVGNGECYALASWYERMISPDATVGLGAGVGWVSGAIGDTISAKNIGSSYNWQANGWTVSTSGPFKAGQIVTLGATPGNPYGHVVIVEAVDGDRLTILEQNYGGKRYPVRNYYSAASYRQQVVHYITPPGTVAQSAPNLAGSRSYRETGTMTVTVDALNVRRAPNTSGEIVAVYKRGESFDYDTVIIDVNGYVWVSYIGGSGKRNYVATGATKDGKRFGNAWGTFK
Question: Which “clearing zone around PlySs2 drops on lawns of rat oral cavity cultures” value [1] does the source give for B1 here?
Answer: only appeared on one culture

Question: What about the activity maintained (S. suis strain 7997 [2]; 37° C. in buffer, after 48 hours) of the same molecule?
Answer: at least 50%

Question: What about the “stability of purified lysin” value (S. suis strain 7997 [2]; 37° C. in buffer, up to 24 hours) of the same molecule?
Answer: > 90%

Question: And the “activity retained on freezer storage” value (S. suis strain 7997 [2]; −80° C. in buffer, up to at least 7 months)?
Answer: ~100%

Question: And the “activity against MRSA strains” value [3]?
Answer: reduction in growth and killing

Question: What about the “development of resistance (4-fold increase in MIC)” value (S. aureus MW2 and 8325) of the same molecule?
Answer: Neither S. aureus strain developed resistance

Question: And the “bond catalyzed (cleavage type)” value [4]?
Answer: N-acetylmuramoyl,-L-alanine amidase

Question: And the “effectiveness against VRSA strains” value [5]?
Answer: similarly effective

Question: And the “effectiveness against VISA strains” value [6]?
Answer: similarly effective

Question: What about the “concentration with acute lytic activity” value (S. suis strain 7997 [7]) of the same molecule?
Answer: ≥ 8 µg/mL

Question: What about the “NaCl concentration of greatest activity” value (S. suis strain 7997 [8]; S. suis strain 7997) of the same molecule?
Answer: 0 mM

Question: And the “pH up to which acute activity is shown” value (S. suis strain 7997 [8]; S. suis strain 7997, Bis-tris propane (BTP) buffer)?
Answer: ≤ 9.7

Question: And the “pH of strongest activity (optimal pH)” value (S. suis strain 7997 [8]; S. suis strain 7997, phosphate/citrate buffer)?
Answer: 8.0
